Laboratory results reported in patent publication US6927041B2, “Human neuropeptide Y-like G protein-coupled receptor” (Bayer Corporation, priority 2000, dated 2005).
Where no end group is shown, it is not given here.

Target: T1, human NPY-like GPCR (Homo sapiens, UniProt Q96P65)
T1 construct: expressed in transfected cells; host or cells: HEK293 (human embryonic kidney 293) cells, membrane preparation
T1 sequence (Q96P65 1-431): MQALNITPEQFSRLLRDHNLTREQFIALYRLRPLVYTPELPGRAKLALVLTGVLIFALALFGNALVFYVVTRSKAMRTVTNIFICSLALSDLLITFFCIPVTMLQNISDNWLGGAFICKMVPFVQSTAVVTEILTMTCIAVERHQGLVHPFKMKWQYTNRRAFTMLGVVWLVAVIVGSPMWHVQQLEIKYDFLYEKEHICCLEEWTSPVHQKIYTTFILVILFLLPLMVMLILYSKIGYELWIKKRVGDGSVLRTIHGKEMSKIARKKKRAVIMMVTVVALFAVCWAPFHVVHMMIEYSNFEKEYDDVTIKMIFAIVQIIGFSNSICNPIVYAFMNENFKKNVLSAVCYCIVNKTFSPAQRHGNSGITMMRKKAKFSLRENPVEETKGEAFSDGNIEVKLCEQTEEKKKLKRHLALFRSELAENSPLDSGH
Assay: Binding affinity of known peptides for the human NPY-like GPCR
Conditions: human neuropeptide Y-like G protein-coupled receptor (SEQ ID NO:2); qualitative statement
Method: Human embryonic kidney 293 cells transfected with a polynucleotide that expresses human NPY-like GPCR are scraped from a culture flask into 5 ml of Tris HCl, 5 mM EDTA, pH 7.5, and lysed by sonication. Cell lysates are centrifuged at 1000 rpm for 5 minutes at 4° C. The supernatant is centrifuged at 30,000×g for 20 minutes at 4° C. The pellet is suspended in binding buffer containing 50 mM Tris HCl, 5 mM MgSO4, 1 mM EDTA, 100 mM NaCl, pH 7.5, supplemented with 0.1% BSA, 2 μg/ml aprotinin, […], and 10 μg/ml phosphoramidon. Optimal membrane suspension dilutions, defined as the protein concentration required to bind less than 10% of the added radioligand, are added to 96-well polypropylene microtiter plates containing ^125I-labeled ligand or test compound, non-labeled peptides, and binding buffer to a final volume of 250 μl.
In equilibrium saturation binding assays, membrane preparations are incubated in the presence of increasing concentrations (0.1 nM to 4 nM) of ^125I-labeled ligand or test compound (specific activity 2200 Ci/mmol). The binding affinities of different test compounds are determined in equilibrium competition binding assays, using 0.1 nM ^125I-peptide in the presence of twelve different concentrations of each test compound.
Binding reaction mixtures are incubated for one hour at 30° C. […] Radioactivity is measured by scintillation counting, and data are analyzed by a computerized non-linear regression program.
Non-specific binding is defined as the amount of radioactivity remaining after incubation of membrane protein in the presence of 100 nM of unlabeled peptide. Protein concentration is measured by the Bradford method using Bio-Rad Reagent, with bovine serum albumin as a standard. A test compound which […] the radioactivity of membrane protein by at least 15% relative to radioactivity of membrane protein that was not incubated with a test compound is identified as a compound which binds to a human NPY-like GPCR polypeptide.

binding affinity for the receptor | Substance
do not appear to have binding affinity | peptide YY: peptide that stimulates the Y1 receptor
do not appear to have binding affinity | orexin-A (QPLPDCCRQKTCSCRLYELLHGAGNHAAGILTL; ends and bridges not checked; cysteine pairing not given here; UniProt O43612 34-66, looked up)
do not appear to have binding affinity | Neuropeptide Y
